2 substances from US20220195012A1 can be followed below.

The target of one assay is CP C3-convertase (C4b2a) (UniProt P0C0L4). Put plainly: cell-based or functional assay.
Another assay addresses AP C3-convertase (C3bBb) (UniProt P01024). Put plainly: cell-based or functional assay.

D2D3 (DAF deletion mutant D2-D3), sequence (P08174 98-224 limits assumed, stated change not applied): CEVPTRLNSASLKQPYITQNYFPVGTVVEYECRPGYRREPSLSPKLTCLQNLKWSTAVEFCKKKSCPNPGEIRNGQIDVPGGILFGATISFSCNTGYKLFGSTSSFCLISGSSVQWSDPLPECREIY
CP C3-convertase (C4b2a), sequence (P0C0L4 757-1446 limits assumed, chain 1 of 4): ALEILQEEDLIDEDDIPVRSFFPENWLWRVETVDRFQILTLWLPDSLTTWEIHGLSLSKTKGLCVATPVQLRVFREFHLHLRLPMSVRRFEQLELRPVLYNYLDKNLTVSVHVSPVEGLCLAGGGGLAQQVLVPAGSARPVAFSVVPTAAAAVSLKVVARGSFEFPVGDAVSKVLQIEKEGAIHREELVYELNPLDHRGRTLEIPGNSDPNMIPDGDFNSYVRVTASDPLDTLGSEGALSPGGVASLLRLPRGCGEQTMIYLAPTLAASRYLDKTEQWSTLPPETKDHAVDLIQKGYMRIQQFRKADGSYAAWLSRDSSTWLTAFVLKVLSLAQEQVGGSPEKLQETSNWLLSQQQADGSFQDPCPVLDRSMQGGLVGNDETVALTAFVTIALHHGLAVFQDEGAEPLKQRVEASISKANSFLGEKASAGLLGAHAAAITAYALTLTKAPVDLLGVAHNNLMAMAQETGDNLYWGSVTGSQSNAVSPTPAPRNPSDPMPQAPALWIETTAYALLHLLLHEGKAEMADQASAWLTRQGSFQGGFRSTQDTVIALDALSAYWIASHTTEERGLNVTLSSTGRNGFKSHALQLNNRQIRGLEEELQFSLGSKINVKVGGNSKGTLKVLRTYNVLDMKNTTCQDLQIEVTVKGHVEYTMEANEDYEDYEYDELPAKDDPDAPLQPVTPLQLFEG
CP C3-convertase (C4b2a), sequence (P0C0L4 20-675 limits assumed, chain 2 of 4): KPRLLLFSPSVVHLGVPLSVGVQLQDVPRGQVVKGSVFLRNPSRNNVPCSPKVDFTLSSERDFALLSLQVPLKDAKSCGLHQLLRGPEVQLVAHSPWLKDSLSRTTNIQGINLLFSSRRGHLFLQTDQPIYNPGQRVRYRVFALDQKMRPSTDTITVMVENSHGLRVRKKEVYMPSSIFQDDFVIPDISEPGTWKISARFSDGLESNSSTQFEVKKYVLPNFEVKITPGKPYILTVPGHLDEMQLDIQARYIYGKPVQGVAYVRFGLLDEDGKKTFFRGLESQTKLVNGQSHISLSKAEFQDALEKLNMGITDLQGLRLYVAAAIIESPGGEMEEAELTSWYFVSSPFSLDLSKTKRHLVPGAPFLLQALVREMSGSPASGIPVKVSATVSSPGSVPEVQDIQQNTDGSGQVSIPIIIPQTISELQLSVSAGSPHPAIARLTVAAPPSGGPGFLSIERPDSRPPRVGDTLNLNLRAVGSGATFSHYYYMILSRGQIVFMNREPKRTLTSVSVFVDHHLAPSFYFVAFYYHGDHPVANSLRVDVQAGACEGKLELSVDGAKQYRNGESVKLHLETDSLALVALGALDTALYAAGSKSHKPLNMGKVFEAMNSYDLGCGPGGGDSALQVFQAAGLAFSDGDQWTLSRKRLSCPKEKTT
CP C3-convertase (C4b2a), sequence (P0C0L4 1454-1744 limits assumed, chain 3 of 4): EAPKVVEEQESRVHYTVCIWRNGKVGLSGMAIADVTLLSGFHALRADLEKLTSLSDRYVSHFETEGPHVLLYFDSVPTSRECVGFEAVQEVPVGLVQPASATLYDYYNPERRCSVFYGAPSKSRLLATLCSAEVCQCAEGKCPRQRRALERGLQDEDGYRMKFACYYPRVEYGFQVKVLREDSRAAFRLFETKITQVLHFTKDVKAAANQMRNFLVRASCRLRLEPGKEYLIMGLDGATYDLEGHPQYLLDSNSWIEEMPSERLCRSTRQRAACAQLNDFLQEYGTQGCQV
CP C3-convertase (C4b2a), sequence (P06681 244-752 limits assumed, chain 4 of 4, further chain): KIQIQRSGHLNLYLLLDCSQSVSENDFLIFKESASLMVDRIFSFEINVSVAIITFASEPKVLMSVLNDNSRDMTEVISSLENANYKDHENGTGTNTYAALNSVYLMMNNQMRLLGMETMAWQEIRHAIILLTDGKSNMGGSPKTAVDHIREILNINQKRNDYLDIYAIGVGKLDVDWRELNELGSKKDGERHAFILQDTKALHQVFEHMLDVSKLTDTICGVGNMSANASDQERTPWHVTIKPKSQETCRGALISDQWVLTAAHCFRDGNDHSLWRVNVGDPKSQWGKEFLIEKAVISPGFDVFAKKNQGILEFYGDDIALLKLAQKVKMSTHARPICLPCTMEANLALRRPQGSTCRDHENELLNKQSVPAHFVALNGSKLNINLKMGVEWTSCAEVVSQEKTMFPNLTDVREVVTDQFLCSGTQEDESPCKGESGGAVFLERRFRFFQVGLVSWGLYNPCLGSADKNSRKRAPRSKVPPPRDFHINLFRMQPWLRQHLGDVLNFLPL
AP C3-convertase (C3bBb), sequence (P01024 23-667 limits assumed, chain 1 of 3): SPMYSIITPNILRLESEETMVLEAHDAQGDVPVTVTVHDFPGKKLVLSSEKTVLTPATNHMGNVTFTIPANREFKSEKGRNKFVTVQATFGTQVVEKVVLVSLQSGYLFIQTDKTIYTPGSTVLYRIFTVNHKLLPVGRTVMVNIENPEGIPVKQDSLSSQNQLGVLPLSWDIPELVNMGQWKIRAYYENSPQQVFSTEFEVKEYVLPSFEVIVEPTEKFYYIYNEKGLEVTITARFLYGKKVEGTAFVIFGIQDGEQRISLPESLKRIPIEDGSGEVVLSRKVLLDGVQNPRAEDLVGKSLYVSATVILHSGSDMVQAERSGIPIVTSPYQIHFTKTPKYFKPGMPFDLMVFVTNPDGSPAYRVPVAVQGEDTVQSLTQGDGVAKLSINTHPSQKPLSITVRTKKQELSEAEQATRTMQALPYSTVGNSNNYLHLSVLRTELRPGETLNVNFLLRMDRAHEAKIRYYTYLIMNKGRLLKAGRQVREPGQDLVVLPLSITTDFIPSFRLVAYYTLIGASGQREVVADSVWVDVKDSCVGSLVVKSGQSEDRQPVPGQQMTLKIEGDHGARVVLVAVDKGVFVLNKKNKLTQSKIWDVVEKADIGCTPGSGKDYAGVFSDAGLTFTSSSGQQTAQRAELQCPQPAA
AP C3-convertase (C3bBb), sequence (P01024 749-1663 limits assumed, chain 2 of 3): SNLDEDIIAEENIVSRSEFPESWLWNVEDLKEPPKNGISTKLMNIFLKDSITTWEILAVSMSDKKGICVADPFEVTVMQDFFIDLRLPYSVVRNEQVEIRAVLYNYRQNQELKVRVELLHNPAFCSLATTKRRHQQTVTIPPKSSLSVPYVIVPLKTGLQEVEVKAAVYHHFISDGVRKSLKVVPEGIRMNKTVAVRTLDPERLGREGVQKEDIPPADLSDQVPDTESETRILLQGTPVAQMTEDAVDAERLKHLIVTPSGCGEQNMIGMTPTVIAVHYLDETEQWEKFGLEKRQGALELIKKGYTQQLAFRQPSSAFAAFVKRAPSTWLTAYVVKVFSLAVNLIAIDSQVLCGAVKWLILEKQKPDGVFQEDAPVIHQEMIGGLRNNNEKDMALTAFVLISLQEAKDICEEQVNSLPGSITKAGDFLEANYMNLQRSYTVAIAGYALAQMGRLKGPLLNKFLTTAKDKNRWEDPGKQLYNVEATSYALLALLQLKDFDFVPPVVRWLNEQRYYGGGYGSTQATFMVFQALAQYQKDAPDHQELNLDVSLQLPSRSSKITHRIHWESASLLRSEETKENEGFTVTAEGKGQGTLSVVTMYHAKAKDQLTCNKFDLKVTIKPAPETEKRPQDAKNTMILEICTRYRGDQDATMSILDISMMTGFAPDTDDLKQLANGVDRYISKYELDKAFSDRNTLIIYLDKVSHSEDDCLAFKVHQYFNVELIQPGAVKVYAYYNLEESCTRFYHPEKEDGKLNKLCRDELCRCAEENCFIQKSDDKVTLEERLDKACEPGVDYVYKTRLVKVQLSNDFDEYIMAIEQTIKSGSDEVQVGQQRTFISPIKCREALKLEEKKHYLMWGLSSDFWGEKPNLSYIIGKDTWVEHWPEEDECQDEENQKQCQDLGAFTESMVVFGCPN
AP C3-convertase (C3bBb), sequence (P00751 260-764 limits assumed, chain 3 of 3, further chain): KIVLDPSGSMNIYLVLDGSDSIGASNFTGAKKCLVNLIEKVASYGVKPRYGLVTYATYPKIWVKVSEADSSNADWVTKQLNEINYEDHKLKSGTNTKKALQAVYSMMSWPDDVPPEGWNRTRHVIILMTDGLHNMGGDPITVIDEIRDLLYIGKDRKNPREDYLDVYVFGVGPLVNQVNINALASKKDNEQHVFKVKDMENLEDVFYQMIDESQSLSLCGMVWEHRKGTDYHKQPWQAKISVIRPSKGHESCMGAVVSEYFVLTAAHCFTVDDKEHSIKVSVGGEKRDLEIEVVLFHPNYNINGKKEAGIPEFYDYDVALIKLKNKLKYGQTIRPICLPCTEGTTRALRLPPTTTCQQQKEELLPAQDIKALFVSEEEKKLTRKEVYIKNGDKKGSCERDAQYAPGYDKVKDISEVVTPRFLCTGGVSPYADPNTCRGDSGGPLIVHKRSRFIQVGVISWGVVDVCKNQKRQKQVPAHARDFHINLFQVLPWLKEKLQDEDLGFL

In the assay with CP C3-convertase (C4b2a), D2D3D4M4 (DAF-MCP chimera) registered a CP-DAA IC50 of 5.7 µM and a Relative CP-DAA of 0.4. In the assay with AP C3-convertase (C3bBb), this substance showed an AP-DAA IC50 of 0.0056 µM; an AP-DAA, fold reduction compared to DAF of 10 fold; a Relative AP-DAA of 0.4.
For the substance “D2D3 (DAF deletion mutant D2-D3) (from UniProt P08174 98-224)”, in the assay with CP C3-convertase (C4b2a), the CP-DAA IC50 came out at 10.9 µM and the Relative CP-DAA is less than 0.3. Moreover, in the assay with AP C3-convertase (C3bBb), the AP-DAA IC50 is more than 0.01 µM and the Relative AP-DAA is less than 0.2.
